Data from patent US20220289859A1 (GlaxoSmithKline, published 2022).

T1: BCMA (UniProt Q02223 1-54, limits assumed)
T1 construct: also called antigen; CD269
T1 sequence (looked up): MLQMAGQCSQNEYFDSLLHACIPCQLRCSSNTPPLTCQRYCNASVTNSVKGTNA


What was measured:
[1] = target: Neonatal Fc Receptor (FcRn) (UniProt P55899 24-297; P61769 21-119, limits assumed); test: SPR specific binding activity, FcRn on NTA chip; ref std #162397940
Method: The FcRn binding concentration of the sample was determined by interpolation of the binding response on a calibration curve. Specific binding activity (%) was calculated by dividing the FcRn binding concentration by the total protein concentration.

BCMA [2] = target: T1, BCMA; test: SPR, protein A capture; H2O2-treated 1 h; ref std #182407660A
Method: (§1) The specific binding activity (%) was calculated by dividing the BCMA or FcγRIIIa binding concentration by the absorbance at 280 nm concentration.

BCMA [3] = target: T1, BCMA; test: SPR specific binding activity, protein A capture; ref std #162397940
Method: as §1

FcγRIIIa = target: T2, FcγRIIIa (UniProt P08637 17-208, limits assumed); test: as above
T2 construct: also called CD16a
Method: as §1

BCMA [4] = target: T1, BCMA; test: SPR as in Example 4; glyco-enriched samples of belantamab
Method: as §1

Neonatal Fc Receptor (FcRn), sequence (P55899 24-297 limits assumed, form in doubt, chain 1 of 2): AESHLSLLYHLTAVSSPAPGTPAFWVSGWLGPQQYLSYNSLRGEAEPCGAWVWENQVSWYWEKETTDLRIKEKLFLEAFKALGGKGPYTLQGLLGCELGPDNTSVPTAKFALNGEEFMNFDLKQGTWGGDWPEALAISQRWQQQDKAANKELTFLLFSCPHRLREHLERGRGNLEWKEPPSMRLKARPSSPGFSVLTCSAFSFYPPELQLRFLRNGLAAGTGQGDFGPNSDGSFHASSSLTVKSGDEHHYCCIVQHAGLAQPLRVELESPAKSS
Neonatal Fc Receptor (FcRn), sequence (P61769 21-119 limits assumed, form in doubt, chain 2 of 2): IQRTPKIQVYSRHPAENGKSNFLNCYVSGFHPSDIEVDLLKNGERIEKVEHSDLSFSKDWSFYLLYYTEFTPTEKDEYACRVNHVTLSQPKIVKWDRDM
T2 sequence (P08637 17-208 limits assumed): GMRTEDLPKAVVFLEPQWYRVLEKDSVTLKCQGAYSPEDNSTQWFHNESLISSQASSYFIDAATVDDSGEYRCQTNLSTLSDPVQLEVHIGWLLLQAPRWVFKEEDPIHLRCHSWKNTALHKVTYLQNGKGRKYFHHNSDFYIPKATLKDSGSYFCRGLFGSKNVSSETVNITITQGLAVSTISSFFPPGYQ

| Binder | FcRn (%) [1] [%] | % Antigen Specific Binding (BCMA [2]) [%] | BCMA (%) (BCMA [3]) | FcγRIIIa (%) (FcγRIIIa) | Specific BCMA binding activity (BCMA [4]) [%] |
| --- | --- | --- | --- | --- | --- |
| belantamab mafodotin (antibody, human IgG1, kappa, MMAF on LC C214 in part of the molecules; MMAF conjugated to interchain cysteine sulfhydryls (sites printed at paragraph 239: HC 224, C230, HC 233); heterogeneous drug load DL0 to DL8, average DAR about 4 (2.1 to 5.7 in the DAR samples of Example 4), Antibody-drug conjugate: belantamab conjugated to MMAF; Tested as lots, as samples of differing average DAR and as forced-degradation samples (oxidised, base, acid, thermal, photo); the sample is named in each row; also called anti-BCMA ADC; ADC) heavy: not shown light: not shown | 101 | 99 | 96 | 97 |  |
| belantamab mafodotin DL0 species (antibody, human IgG1, kappa, no drug load, antibody without cytotoxic agent) heavy: not shown light: not shown | 108 |  | 103 | 110 |  |
| belantamab mafodotin DL2 species (antibody, human IgG1, kappa, MMAF on LC C214 of one light chain; drug load of two MMAF per antibody; conjugation sites LC C214 and HC 224 (one embodiment)) heavy: not shown light: not shown | 109 |  | 99 | 104 |  |
| belantamab deglycosylated with PNGaseF (antibody, human IgG1, kappa, N-linked glycans removed with PNGaseF) heavy: not shown light: not shown |  |  |  |  | 95 |
| belantamab mafodotin DL4a species (antibody, human IgG1, kappa, MMAF on LC C214; drug load of four MMAF; conjugation sites LC C214, HC 224, LC C214 and HC 224) heavy: not shown light: not shown | 102 |  | 95 | 103 |  |
| belantamab mafodotin DL4b species (antibody, human IgG1, kappa, drug load of four MMAF; conjugation sites as printed: LC C230, HC 233, LC C230 and HC 233) heavy: not shown light: not shown | 99 |  | 90 | 91 |  |
| belantamab mafodotin DL6 species (antibody, human IgG1, kappa, MMAF on LC C214 of one light chain; drug load of six MMAF; conjugation sites as printed: LC C214, HC 224, LC C230, HC 233, LC C230 and HC 233) heavy: not shown light: not shown | 97 |  | 89 | 84 |  |
| belantamab mafodotin DL8 species (antibody, human IgG1, kappa, MMAF on LC C214; drug load of eight MMAF; conjugation sites as printed: LC C214, HC 224, LC C214, HC 224, LC C230, HC 233, LC C230 and HC 233) heavy: not shown light: not shown | 93 |  | 86 | 82 |  |
